The DeepSol protein solubility set

assay: soluble on expression in E. coli; label from the status in PepcDB or PDB records

Sequence	soluble on expression in E. coli
MAPRKKVNEMVIRKTANLTDKMRKERTVEEFEEVKTAQSKSYESDTSSAESLRQKRTAPSAIRTVQIQKEIVLPYDGNLVSVYEKSSNTRSLDTISEPGDLEEFKKKAEESKYVGPQIVPMKFVTTDVETPVKAIFVSDFDFCQAMHHPPQSSTQSKKVEFSKRFEVEQKFLEEMVADIEKLIVSSGRMDVELKVVKAREENDSPRAKISLVRKIHAEKVDDNLNNQAGLVGFILPDLEMKDHGIPLKITKNQQVPSGQKMFESFKRLFGY	not soluble
MKQGTVKWFNAEKGFGFIEVEGENDVFVHFSAINQDGYKSLEEGQAVEFEVVEGDRGPQAANVVKL	not soluble
MTKKIIGIAGNQLLQAAEVFHGNQVTYTPQGFVSAVQAAGGVPLVLPIGPKELAATYIQQIDKLLLAGGQDVAPEFYGQEPHIKLEETNRDRDEFELALIEEALKQNKPIFAVCRGMQLVNVALGGTLYQDLSMYPQWSVKHGQQPTQPIFATHRIDVEPDSQLSNIYGTTGQVNSYHHQALHTLGKDLRVTAWSSDGLAEAVESTNEQQPLLAVQWHPELMYARDAKSQALFNYFVQKL	not soluble
MKIKEVRITGFRSYKDNTNVSGFSPRSNVVVGRNGSGKSNFFHAIQFVLSDEYAHLKEEQRLGLLHESTGPKVAHARVEITFDNSEKRLMAFENSEVKIVRQVGKKKDQYYIDNKMVPRAEVVNLMESAGFSRSNPYYIVKQGKINELATSPDAYKLKLLREVAGTRVYDERKEESLKILKETKMKTEKIQGLLKYIDERLQTLENEKEDLKEYQKLDKTKRSVEYTMYDNTNKEAIKEKTKLDEQKVELNQKDNNVKSQLNDVIAEMAKLKTDKKKLESLGRGLREDKETLQAEETKMVEEKMTLKLEIDSLNEENTRERQGRQNAEHSLQGVGDEIFKNEEELDTIKPEYAKLLEEESRLKTDIRIDESRAKEILAKQGQRSQFSSVDDRDKFLRNEIRRISGLIADNKEREETIQKELADVEREDEKLNNEIQSISRTIDENRYEMDTFAAKSTSLKQEYDAAYVAQQTAAREEKAIRDKIGNTEQDISAANDQLRRIVARPVYNGITGVRKVIEEFKHDNRNGQHDDVINGYYGTVIELAEVPDMFRTAVEVIAQNRLFYHVVETDRIATKILRKFNEMQLPGEINFFPMNRVSAPRQRDLSNNSNARPMSDVIDYEVQYDKVFKSITANVIIVRTLDQAARDLRNEGFDVVSVDGDQMSKKGVMTGGFIDKKRSKLELHTQKDRFTKELAELQKSLAEAEKMVRERTQEAEKIRNRMQQHENQIGDFHRKHRELTEAKNAISQQFYMVTSTKEPKKDQLLGIKNHLRELLAQKENFEQEIGSNMSSQLTSDEEQTVKKLRKKVDEMTKQLATVSRRRMDLMHRKNAIENLLTKKLYKTKESLTAKNPKFFLQRVDDISDNERRHKLENANAQLTSLLTRMESTRKQLATAISELQDYETKEKALQINIDNVLEQQRDLEKQQADFQLQYDKITAKEDEVKQKREDSLKKLILSRYSIKTRKNQFSYEISDSEEVGAKREPIEHRKLKISTFCLEYRAKLEKVHSNMRLLGALPTDTFSKWQNVKPRELEKKLLECVNELKKYENVNKKALDQYMTASSQKEELTKRMAEQKKSEDSIEELLKVLENRKYEAIDLTFKQVKKNFEQVFKQLVPHGRGKMQMRAREQRDDEEGINSVELYEGISVLVSFVSDDGDSETREMTQLSGGQKSLVALAIIFSIQKCDPAPFYLFDEIDAALDAQHRKSVADMIQSLSDQAQFVTTTFRPELLATAEKFYGVRFRNKVSHIDSVTREQAYDFVEDDTTHG	not soluble
MSIAIIIGTHGAAAEQLLKTAEMILGEQSNVAYIDFVPGENAETLIEKYNDRLTGLDTSKGVLFLVDTWGGSPFNAASRIAIDKENYEVVTGVNIPMLAETFMARDDEPSFAELVAVAVETGREGVKALKAPDVKSDKPETQPAAPVPTAKAPAVALGPNDHMKIGLARIDDRLIHGQVATRWTKETNVNRIIVVSDEVAADKMRKTLLTQVAPPGVTAHVVDVEKAIRVYNNPKYANDRVMLLFTNPTDVVRLVEGGVDIKSVNIGGMAFRQGKTQVNNAVSIDEKDIEAFNKLNARGIELEVRKVSSDSRLKMMDLISKLNK	not soluble
MEPPKPEYAPTAHSRYNSQYFYWLFLDLFHLEPSMKLFPSLATLTLCSLMSAPLLAAEQAPELTGCAAKRQAIMNQIEQAKAHGNSNQQAGLERALSEVTAHCTDASLKKERENKVLEAKHEVSRRQADLEKAMKKGDSEKINKRKDKLAESRKELQQALDELDKLEHHHHHH	not soluble
MGSDKIHHHHHHMIVEKRRFPSPSQHVRLYTICYLSNGLRVKGLLAEPAEPGQYDGFLYLRGGIKSVGMVRPGRIIQFASQGFVVFAPFYRGNQGGEGNEDFAGEDREDAFSAFRLLQQHPNVKKDRIHIFGFSRGGIMGMLTAIEMGGQAASFVSWGGVSDMILTYEERQDLRRMMKRVIGGTPKKVPEEYQWRTPFDQVNKIQAPVLLIHGEKDQNVSIQHSYLLEEKLKQLHKPVETWYYSTFTHYFPPKENRRIVRQLTQWMKNR	not soluble
MMKTNTKKAKYDDAELFEKVLVGMSWLESHLREIIQTMVTDADVSFEQFLILYYLDHSTDHRITVKELAADRHVSSSAISRKLTYLINNDLIVLNIDPYDRRYRYLTLTAKGEKLARVIEKVNEERLGKFLDEFGRIRTSELTDELRMVSKVLVDTKEIKG	not soluble
MGHHHHHHSHMAAAIASSLIRQKRQAREREKSNACKCVSSPSKGKTSCDKNKLNVFSRVKLFGSKKRRRRRPEPQLKGIVTKLYSRQGYHLQLQADGTIDGTKDEDSTYTLFNLIPVGLRVVAIQGVQTKLYLAMNSEGYLYTSELFTPECKFKESVFENYYVTYSSMIYRQQQSGRGWYLGLNKEGEIMKGNHVKKNKPAAHFLPKPLKVAMYKEPSLHDLTEFSRSGSGTPTKSRSVSGVLNGGKSMSHNEST	soluble
SKGIKSEEVKINNIAIEINKATKRDPGNCNLDNHIKPSPDSSLDNQMKLSCESAPDQNFSICSASEVETNPLENTAAASTLLSQAKIDEDRTFPGSAPNQQHSVLSDEASINRKNRDVPPNHSQLKHDSHLEITIPKSLKLKDSEKVDEKQLVIDAGHKRFGAVSCNICGMLYTASNPEDETQHLLFHNQFISAVKYVVLLINHHECGSEEEFITSLFLSMSNFRYTQRSLLPY	soluble
MKFEILQQLNAERAARRPAIVVTDTATGAQRLVKAADIAADPLAAELGKQLRMGKSASIEIDGRKLFLNVYAPTAKLVIVGAVHISQALAPLARSLGYDVTVVDPRTAFASPERFPDVPLIAEWPDVALPPLNIDHYTAFVALTHDPKIDDPALLHAFARDCFYIGALGSKKTHAKRLERLKGQGASDADLGRIHAPIGLAIGAVSPSEIAVSIMAEITAALRLPASSKAAAA	not soluble
MEDPVFTFGLIADVQYADIEDGENYLRTRRRYYRGSADLLRDAVLQWRRERVQCVVQLGDIIDGHNRRRDASDRALDTVMAELDACSVDVHHVWGNHEFYNFSRPSLLSSRLNSAQRTGTDTGSDLIGDDIYAYEFSPAPNFRFVLLDAYDLSVIGREEESEKHTHSWRILTQHNHNLQDLNLPPVSVGLEQRFVKFNGGFSEQQLQWLDAVLTLSDHKQERVLIFSHLPVHPCAADPICLAWNHEAVLSVLRSHQSVLCFIAGHDHDGGRCTDSSGAQHITLEGVIETPPHSHAFATAYLYEDRMVMKGRGRVEDLTITYS	not soluble
MGSDKIHHHHHHMEIFGKTFREGRFVLKEKNFTVEFAVEKIHLGWKISGRVKGSPGRLEVLRTKAPEKVLVNNWQSWGPCRVVDAFSFKPPEIDPNWRYTASVVPDVLERNLQSDYFVAEEGKVYGFLSSKIAHPFFAVEDGELVAYLEYFDVEFDDFVPLEPLVVLEDPNTPLLLEKYAELVGMENNARVPKHTPTGWCSWYHYFLDLTWEETLKNLKLAKNFPFEVFQIDDAYEKDIGDWLVTRGDFPSVEEMAKVIAENGFIPGIWTAPFSVSETSDVFNEHPDWVVKENGEPKMAYRNWNKKIYALDLSKDEVLNWLFDLFSSLRKMGYRYFKIDFLFAGAVPGERKKNITPIQAFRKGIETIRKAVGEDSFILGCGSPLLPAVGCVDGMRIGPDTAPFWGEHIEDNGAPAARWALRNAITRYFMHDRFWLNDPDCLILREEKTDLTQKEKELYSYTCGVLDNMIIESDDLSLVRDHGKKVLKETLELLGGRPRVQNIMSEDLRYEIVSSGTLSGNVKIVVDLNSREYHLEKEGKSSLKKRVVKREDGRNFYFYEEGERE	soluble
MAHHHHHHMKLFLTVVERHNSTNSSDVTPTDDVALFDPGVWSRTATSEMARRNVSASYVAQQVYRHAALTQLAKVALSSAVCFRYGPRPPPHLDSFLFHKRCRPTGHGRCGTPPAAAAPPVCAPSPLISSSSSSFSVNMAATSPGTGQQRSTAAGASDSATEYDSLLALWLRELLSGTDSSVTVTALLLFVEGTAIDMATGSKVHTPLNIGSGTARQLRTHEDAMAFLHACESTLHHSAAEFPRCPYHVCVAVLVGTHGGSHGKNPVIFLDVAAAAPESAGAHQEVRLREQVALFGRQLGADATTATPHARQRTRKAEDEQWLSLLQSCQLSRASLVGLVYVACEAGHDPFGHSRVEGTDCDPFTLASVLRQRALLEAVNNGVLHPQLRKLSRARNRATARAVKLPASGATTRSRAPASPLKGRPSRGRQRPQQHSPKLPYLARDSVPPRRTQEHSIVFYGVSRCGRSADLLARIEEEEHHARVALSSAEQRAWNLAELRWILRAHPPGKSIDAMLRRFAHNVDGVSRPEQQHPHSVPPRFLPPPLNVAQLATAISRPSTTATRRSSFASATRTPESTSPGGTVRTRVTASMLPTSPSRLALTSTFFTRRITTPLFFREAGSPPQNQDDPRAHSASSHVAVRGHNATELERRRLKSGATFSLATDSPNARACTTARRLSAIETALLARAHSSSQRSLPSPSPCTGEVERLYPLVRAFHVEMCEQDALMAEELMMRSCIEHKEKNCRKTLSVARAESVRRLSVWWPSETGTQPQREPQVPDSPRWRPAKPLPLRIFFQQ	not soluble
MNYTEHYHDWLRDAHAMEKQAESMLESMASRIENYPDIKARIEQHISETKHQITMLEEVLDRNGISRSVLKDSMSKMAAMGQSIGGMFPSDEIVKGSISGYVFEQFEIACYTSLLAAAKKAGDTASIPTIEAILKEEMQMADWLIKHIPQTTEQFLLRSEADGVEAKK	not soluble
FVRMIFSAEKSVWIQTPYLIPDDSMINALLVAVRSGVDVRIMIPCMPDHPFIYRATQYYANYLHKRGIKIYIYDSGFIHAKTMVIDDELAMVGTTNQDIRSYSLNFEVSTFIYNPDIAWMLAQVFEEDIEKSVLLTDEIIKKQGYWLRFKQNFSRLLSPVL	not soluble
MNQPIGIADSSRPKTNVRLTISANNLMDLDVFSKSDPICLIYEKTSGRKATTTEEITVPTWKDKQWTERGRTEVVMNNLNPQFTKTFLLPYFFEETQLLRFEIYDADSPTVGQDLSSHDFLGRFECVLAQIVSYSTLKAHLGKTGQIGAQWRNKDKNTKTGSITIYAEEDEKAEKIQFDVCGEGLDKKDFFGKSDPYLNFKRKFDDGSTHLIHRTEVKPKTLDPRWATVQINTQTLCAKDGDRPIIIECYDHDKWKKGEEPRGDAKFSRDDLIGTAQTTLNELLRGSSDAVEILLTNEKKKAKKGDKYKCSGTLKIWNSRIVIEPTFLDFISGGTQLDFAVAVDFTASNGPPKSSSSLHFMSADRPNQYELALRSVLSICQHYNSSKTFEAFGFGAKLPNQSSVSAIFPLDLQRGTSEVVGITGVMTAYRHALSNVQLYGPTNFAPIIENVARKAQNMIHDSARYQILLIITDGIISDMHATIRSIISASGLPLSIIIIGVGNEDFEKMHELDSDDALLQQDSRIAQRDIVQFVTMREFLNNGQGLYLDPDVIQENLAREVLYEVPAQLTGYMKQRGFQPRPVDDPWRRDSPPPEFDPILDGTGRRAPMLQAPPAGFQYPVYADTSIASAPPMY	not soluble
